The source of these data is a protein production outcome set (Wang et al. 2014).

The series is described as follows: label from the status in PepcDB records.

“MAKYVVTSAWPYVNHVPHLGTLIGSVLSADIYARYLRLRGRQVVFVSGSDEHGTPIELEARKKGVHPKELTDQVHEYDVKMWREYRISFDNYSRTESPVHKEFVMEFMKKLEENGYIFSQEEVLPYCERDKIFLPDRFVEGTCPYCGYEKARGDQCDECGRLLHPTELKNPRCALCGSKPVYKSTRHWFIDLRRVQDRLLKWLESHGELQDSVKKYSINWVAQGLKPRSVTRDLSWGVPAPFKGAEGKTIYVWFDALLGYVSATKELFIMRRGDPEEWKSWWWDSGTRTVYFIGKDNIPFHAIILPALFLASHDPYVLPWRISATEYLMYEGQQFSKSRRIGVWIDEALEIAPADYWRWALARMRPEARDTNFTWKEFYRIVNTELNDDIGNFVNRVLSLVRSRMSGVAPEPEDLGEHQGFVERVRRAAWAVAEDLEAIRIKRATEGILEIAREGNAYLNRTQPWKLLSQDREEGVRALSAALYAVKTLAHLLAPFTPDAADRLWSMLGLAGSVHEAVWDEWLDRPLPGGARIVRVEPLFQKLPDDFLERVDEIVEDARRRAREKRPPLLRD”: the protein production entry is “failed”. The value for “MALANFIDRAATAASQVLADFHLEDFKAALEKQVVAVAFDDQAASCAEGQATLDLAVRLLARLYPVLAILPLGSAASFQAQALERLAKSINPKVGIRRSGKSATICVVAGVTRPPLRCPTFFMGSDGWAAKLSRTDPVGSGSSLLPYGAGAASCFGAANVFRTIFAAQLTGAELDETIDLSLYSYDKTKAGEAGPIDIPVDLGETHLVGLGAIGHGSLWALARQPGLTGRLHVIDHEAIELSNLQRYVLAGQAEIGMSKAVLAATALRSTAIGVEAHPLTWAEYVARHGDWVFDRVGVALDTAADRLAVQGALPRWIANAWTQEHDLGISRHGFDDGQACLCCMYLPSGKSKDEHHLIAEELGIPEAHEQVKTLLQTNAGVPNDFVVRVATAMAVPFEPLAPFVGQPLRSFYQQAICGGLVFQLSDGSRRVRTVVPMAFQSALAGIMLAAELVKHSAGFPVGPTTSTRVNLLRPLGSRLHDPKAKDSSGRCICSDDDFIAAYRRKYGKSIVQLSDVSAA” was “failed”. As for “MALARWGAALQRRWQAIDPAERAGFVAGARFYVGSLPPVFAWGLVTGVAMSKSVLTIPQAIGMTLLVYAGSSQLAVLPLMAAGLPVWTVLLTAFIVNVRFIIFSAGLMQHFSHLPFGRRVLIGFFNGDLPFVLFSQRYPGPGPERGKEGYLWGMALANWTIWQVSSLLGIVGASLFPDAWGLALAGTLALIPVMVSTIRSRATLMAVAVAAVLALVAFKLPYRLSLVIAVVGAMAAGLAGDEATARLQWQRRGAQPAPSEPKEGP”, the entry is “failed”; as for “MALDQSLVGRSYPPTAPYEVGREKIREFAEAVGDANPAYTDAEAAKALGHPDVIAPPTFVFSITFKAAGQVIEDPQLGLDYSRVVHGDQKFSYARPVRAGDRLTVTSTIEAIKSMAGNDILDIRGEVHDEAGEHVVTAWTKLVARAAEEALEHHHHHH”, “not failed”.

As for “MALFSVFSVAQTTTYHTKNKKSISAYQEAELLQQQRRWNEAINVLDAVIQKDTGFVEAYYKVGSMYMAMGNKTAAARYFCKGADLDPSVKAFAGAYFTAGELSYNEGEYVRAKRYFGYALNVQSGDKKIKEQTPVYIAKCDFAIDMMKHPVDFKPVLMTPPINTAFAQSHPVLTADGKTLYYTTLSGLSRQDDENIVTSSYVNGKWSEPVSISDNINSKENEGTCSISMDGNSLVFVGCGKADGLGSCDIYISKKVNNVWSKPTNLGPAVNSTSWDSHPSLSADGRTLYFVSARKGGFGKEDIYVTHLDEKGIWSPAQNAGSSVNTSGTEFSPFIHADGTTLYFSSNGLLGMGGLDIFYTTGNDTTWAVPKNIGYPLNTYANDETLFITVDGAKGYYSRFDGTNVNYNSRIFLYEFDVPQSLKPGRISTFAKGHIYDKQTKKPLGARVELVDIETNTVTQAVQSDSITGEYTIVITEGKEYAVYVNRNKYLFESLNVNYKNPTSFDALTLDIYLTPIISGSHVTLNNIFFQTNSYQLEEKSISELKKLINFIQINPAQRVELAGYTDNVGTAEANLKLSAMRAKAVYDYLIQHGIKPAGITYKGYGAASPVADNNSEEGRQKNRRLEIKIL”, the protein production result was “failed”. Take “MALGFGMKMELQQFLDALASSPEKIEFETTMAVIEDNYDFTPAAFTNGNTQNDANENNGSCKIFAFGLLNALDKEATLACFGRFYREDVLLHPENNDHQNIRNFMVTGWEGIQFETSALTAK”: the protein production entry is reported as “not failed”.

For the sequence “MALHNDGFINRQFVFGDFVLQFDGVLCHQEQQISVPPKELAVLTALLEAAGELVSKDALLDKVWPDGDVNEESLTRCIYALRRILLEDKSNRYIDTVYGKGYRFSRPVAVVSRPTASAQKCTMAILPFRTDGQLDSLELHAALVQCLSRYSPFGLVVMPATITRNCGDIADIIAMIDQLRPDYYLAGQVQQQGDSWLLRVELVRADGHQLVHHESIEIGPGEHIAALQTRLASLLPQRIPGLRWHHGNGSQLDSLDMAITYLNGRHELQQHTPSSLKRALALFLQCTSSQPGNALPYCSLAECYLALAQLGLFDQERALDGAQQAVDRAVALDAANPQALGLLALLSSLRGQQTIAEALFEQARMLAPDSIDIHYYHAWHLFLSDRIPLAQRSLDACLERDPSRIAASMLQLWLTYCEHRLDEAVALGKRQLCQYGQDHPVLQSMLGLMLAIQGQHAQAEELAAAVKASGEEAGLLAVNGCYIAHCRMGDAARPLLQDFLSRVDCRQVRSGLLPLILALHGRAGALHLLGQLESDRYLWLRASRQDPRLAGLFHPHLSEAA”, the protein production entry is “failed”.

Regarding “MALIEGFRVRNYRALRDITLGRLSAEQQGDPLTPFTVVIGKNGVGKSTLFDAFGFVADCLSKDVESACDDKQRGGFERMRSLGTEESIRFDIYYREAKGERPITYELAINLDSSGRPFVESEVLKQRRKGQKHGRPYPFLRLHHGVGKVWAGEEAVETSSGEEDRAQEDVELTDLRQLGIATLGTLKEHPRIKRFRDFLKGWHLSYFHPDSARSIPSAGAQRHLDVHGENIGNVVQYMEREHKERFKTILDRIAAKIPGVHSIRTTVTQDKRVLLQFNDGAFNDPFYAGQMSDGTLKIFAYLLLMEDPEPPPFICIEEPENGLYHRLLDSLASELRSHATGKKNAPQIFVTTHQPYFVDALSTKEVWILEKGKNGFSTICRASDIDLVRNLVEEGLPLGGLWYGDYLDTK”, the protein production result is reported as “failed”. As for “MALIETGPGSTVPMLQARLAARGLTPADVSEVFLTHIHLDHAGAAGHLARHGATIYAHHVGLPHLSDPARLLASARRIYGDDMDALWGEMHPVPDDQLVALNDGDTVPLGGEPLTALDTPGHASHHMSYVLGDVCFTGDVGGVRMPEERHVELPLAPPEIDLDAWRESLAALRAAADRHGLTHLAPTHFGLYDDLPAHFERLEAAIETADDWAARKLPGWDDGDEALQDAVTQWMRSRASDHGVDGDAWDRYERANPSWMAALGLRRYWTTQTA”, the entry is “failed”. In the case of “MALKELTAKEFESYSGNYDLQSFMQTPEMAKLLKKRGYDITYMGYQIDGKMEIISIVYTIPMTGGLHMEVNSGPAHSNSKYLKHFYKELQNYAKSQGALELLIKPYDTYQEFTGEGKPKGAPNTYLIDDLTSIGYHHDGLHIGYPGGEPDWHYVKNLEGITPQNLLKSFSKKGRPLVKKAMSFGIKIRVLKREELHIFKDITSSTSDRRDYMDKSLDYYQDFYDSFGDKAEFVIATLNFREYDHNLQLNAKKLEEQITVLDNRHQNNTDSAKYHRQRTELVNQLASLDKRRKEVEPFIQKFGNQDVVLAGSLFIYSPKETVYLFSGSYTEFNKFYAPAVLQEYVMQEALKRQSTFYNFLGIQGNFDGSDGVLRFKQNFNGYIVRKMGTFRYYPNPLKYKSIQLLKKILRRT”, the protein production entry is “failed”. As for “MALKSHLRACSRPFPRQIGRMRRRNKSLPAAFVSKRLSVLIISRKPEMKALTCMAVLAALVTGSAFAQTPPQTSTRKVDGTDNVYIFRYGGHQSMFVVTPKGVIATDPISYLRPAKPYIDAIKAVTDQPIKYVVYSHHHYDHIAGGQPFKDLGATFIAHRRTKERLLELKKQNALLADVVMPDQVVDDKKSITLGGTTLELNYVGRNHSDNSLVMRLPKEKIVFVVDFAPIESVQFRNIPDNVSPLEYIASLKKLASLDWERMIPGHPNAGGRLGTKKDVEDDIAYMEDLSAEVKKAADAGKCIDTAMKEVKLPKYEKWANYETALPANVERFCYWWGRGY”, the entry is “failed”.
